Results as given in patent publication US20230037552A1 (published 2023).

Columns and labels:
[1] = molecular target: T1, MAGEA1 peptide on HLA-A*02:17 (human); assay: cytokine release
T1 peptide: KVLEYVIKV

[2] = molecular target: T2, MAGEA1 KVL peptide, threonine substitution at position 3 (L) peptide on HLA-A*02:01 (human); assay: cytokine release
T2 peptide: KVTEYVIKV

[3] = molecular target: T3, MAGEA1 peptide on HLA-A*02:04 (human); assay: cytokine release
T3 peptide: KVLEYVIKV

[4] = molecular target: T4, MAGEA1 peptide on HLA-A*02:16 (human); assay: cytokine release
T4 peptide: KVLEYVIKV

[5] = molecular target: T5, MAGEA1 KVL peptide, threonine substitution at position 1 (K) peptide on HLA-A*02:01 (human); assay: cytokine release
T5 peptide: TVLEYVIKV

[6] = molecular target: T6, ASTN1 peptide on HLA-A*02:01 (human); assay: cytokine release
T6 peptide: KLYGLDWAEL

[7] = molecular target: T7, MAGEA1 KVL peptide, threonine substitution at position 5 (Y) peptide on HLA-A*02:01 (human); assay: cytokine release
T7 peptide: KVLETVIKV

[8] = molecular target: T8, MAGEA1 peptide on HLA-A*02:01 (human); assay: multimer staining
T8 peptide: KVLEYVIKV

B1: TCR T15.8-4.3-83 (TCR, V domains shown)
Valpha: AQKVTQAQTEISVVEKEDVTLDCVYETRDTTYYLFWYKQPPSGELVFLIRRNSFDEQNEISGRYSWNFQKSTSSFNFTITASQVVDSAVYFCALSEVASGGSYIPTFGRGTSLIVHP
Vbeta: SQTIHQWPATLVQPVGSPLSLECTVEGTSNPNLYWYRQAAGRGLQLLFYSVGIGQISSEVPQNLSASRPQDRQFILSSKKLLLSDSGFYLCAWSGSGGNQPQHFGDGTRLSIL
B1: recognises [1]; no recognition [2]; recognises [3]. B1: recognises [4]; no recognition [5]; no recognition [6]. B1: no recognition [7]; recognises [8].
